Results as given in a protein production outcome set (Wang et al. 2014).

Experiment: label from the status in PepcDB records

Sequence	protein production
MSSLVGLHYATVLPLAAYLLLAVVILLLAMGRDGAARKTFTASLLMIVLGWIPYIAAFLLLDYSLDEVAKNASDELSPYLRIGAAWSGGGGSLYLFSAFLSLAILLQMLLNKGLNRRAMAVFTLLVLTSMTSATLMGAFGTGPGERGGLGINPVLKNYWVVPHPTTTFLGYSFILVGSVALVLGYYRTGLPIQLLGLAFLTFGLVFGGMWSYETFGWGGYWAWDPVETSQLAVWLATVASIHMIGPLRSLNRGFAAYAASSVFLALYVTRSGVSPLHSFAAESFSAVLLLSASLVMLALSMLLFSEGVGETLEKWKSRLQDARWPPRIAEMNLSNILLTVGSVSIALSALIVYSSLLTPSVLKLVGLDTQPPSFEQGVRFYNRLLIPLALVSLYAVAGYYVSVRAGAKAAYSLFATLTVVLAIMGLATVKNTIIISPLSDTTTNLASATLLAAGSISGSVLLAMSLWMLYGMVKGKVAKSVHTLRIVLEKLVHATMIMILVSVAMSGSYAYNQGYSEEVLVPLGGEVSVMGVTISYEGYDYELHQGTVDLKNNLDPSSAILITAREALNMMDEDLSSTIREYRLASAESQSDRTLQTLLKASASNSEYRGVFTSTRGVADAAVVDVRTGENISNIQTAGETVLQLEDPTLEVTIDPKLDPETGRIEGGALSVVFYPERLVVYGIGSPVSLDPYSYLYVRFREPVEINLDDITVNMEEVVVYSTGGSSIEGVVSGQSVLFEGVAIRVVSGELSFGSMNIELPYQLDRGEFFYFMVYKGQAEVLDDILSSSISDLLESGIAGLAAGEDMDDFNVPRRAPAGVSLRLFMEVNGEPVEADLRFEANGEAIGIHGLVIDTIILRRGLTNVYITVQAPLVSGHFGEYHELMVYYLNEAMNTLRPEEYLALASVMAAGYNIASIVSSPSKERAALEVERATIDLYLLSEKLDEKRSSAAEGIVVSVKIVPGVPLLWLTGVLAGVLLLAMASIHFYLGFRQGRLIDT	failed
SAAATGPSFWLGNETLKVPLALFALNRQRLCERLRKNPAVQAGSIVVLQGGEETQRYCTDTGVLFRQESFFHWAFGVTEPGCYGVIDVDTGKSTLFVPRLPASHATWMGKIHSKEHFKEKYAVDDVQYVDEIASVLTSQKPSVLLTLRGVNTDSGSVCREASFDGISKFEVNNTILHPEIVECRVFKTDMELEVLRYTNKISSEAHREVMKAVKVGMKEYELESLFEHYCYSRGGMRHSSYTCICGSGENSAVLHYGHAGAPNDRTIQNGDMCLFDMGGEYYCFASDITCSFPANGKFTADQKAVYEAVLRSSRAVMGAMKPGVWWPDMHRLADRIHLEELAHMGILSGSVDAMVQAHLGAVFMPHGLGHFLGIDVHDVGGYPEGVERIDEPGLRSLRTARHLQPGMVLTVEPGIYFIDHLLDEALADPARASFLNREVLQRFRGFGGVRIEEDVVVTDSGIELLTCVPRTVEEIEACMAGCDKAFTPFSGPK	failed
AIANSSVSTHGTGDCPVNCTKSEDFAPSKLGTKEYWDGAYKRELQTYKDIGDVGEIWFGEESMHRVIRWMEAQNISENAAILDIGTGNGMFLVELARHGFSNLTGIDYSKAALELTTNILVEEGLKNINIQVEDFLNPSTELKGFDVCIDKGTFDAISLNPEDREEAKKHYVTSLRAVMRPNGFFIITSCNWTKEQLLEIFKPGFELVRELPTPNFQFGGVTGNSVTALVFKQTD	failed
HVSDLDWLMSGLVQRVPHTTSAVLLSCDGLVKSVHGLDPDSADHMAALASGLYSLGRSAGIRFGDGGDVRQVVVELDSTLLFVSTAGSGTCLAVLAGREADAAVLGYEMAMLVKSVRPYLMTAPRQ	not failed
MFALEELPRIPDFTERAICELFELYASIESVQLPPQSSDATNSSSATAPGNIFSAERGPRYLGPRALVRFFTELGVDMRSLAALAFAWLGRWQYPCHCREEGFARGVRYALWALDRRQHNEPRRWEQVQATCSTLLETSIWPRESTALFERLRSAFPDAVLSYTQRSAEAALDFYLFAFDLNRQSPYRRSLSLTDARYLWKQFLSESCYLATPASPGTPAGVANQPWRYLEHFDAYLESRCGMAGTIISRDTWYWVLMFARETQVAGSSFFANYNQGDAWPVLLDGFVEYLRENKLLSS	not failed
NGYTMQRDNQKTLAVYMFEEINRDVEYLSGRLSEKELKDKYRYYGRGYVRITDKDGQVITYEDGSVQDKTVFLTNEGANKLGWKLEFLIDEKMFEEEILEKQN	not failed
MTRADCRSRLMEVATELFAQKGFYGVSIRELAQAAGASISMISYHFGGKEGLYAAVLQEQFACFGQLDDIRGQAGDPLAVMTAYLRWTIQRHRNNPQLLRFYTSELTNPTPCFAAIVSPAIASVIRLLAESIEAGMTRGLFRRDLHAVNSALALAGMVNYFFLSTLATEGLTSHSPDQDEELIRQYVAIFTRGIMADGGAAPA	not failed
MTKIMIIGANGGIAKKLTQRLLAETDDELVLFLRRAERLAQYREQPRVTLIDGNVLDTDELATAMAPVDIVYSNVGGTDLAAQTKSILAAMARTQRQRLIFISALGAHHEVPGKFGAWNEQAIADFLPGFREAARLLSASELVYTEIRPAWLTDVAEIDYELTTGAEPFKGTEVSRASVADLVFKLMAHPENYQRVSLGVDEPGTAGDRPSWLLEHHHHHH	failed
MRPESMTDGVPGSDSPAAAAAAASVTTSLHDLQVLVERGTLSGPEKQQADHLVTSLKRELVLRRVGDHLAERTFHELCVRLAVMERDWAAMERHIQQLMPLYELDRQAGIQSPHRDLLVGLNLMRLLAQNRLAEYHMELELLPTTEPQQNPYVLFPFQVEQALTEGSYQKILHIEAGAEWLPFIELLRETTIQEMVTSWAEAYAHVTLEELASMAALPVEQVPALLARVLDCTQYVVQNETVHFIASDHIREAPSQYLLAKEAVSRTMEYIRGLERIV	not failed
MADCDSVTNSPLATATATLHTNRGDIKIALFGNHAPKTVANFVGLAQGTKDYSTQNASGGPSGPFYDGAVFHRVIQGFMIQGGDPTGTGRGGPGYKFADEFHPELQFDKPYLLAMANAGPGTNGSQFFITVGKTPHLNRRHTIFGEVIDAESQRVVEAISKTATDGNDRPTDPVVIESITIS	not failed
MQSTIRKQLLQVFSEADGEFVSGQTISDKLGCSRTAVWKHMEDLRNEGYELEAVRRLGYRIASKPDKVTANEIQLGLQTKHIGRTVYFEESVESTQHIAAKLAYEGAEEGTIVVAEEQTAGRGRLSRKWHSPKGTGIWMSIILRPSIPVHHAPQLTLLAAVSVAQAIEKCTGVNVGIKWPNDILIQGKKAVGILTEMQADPDKINAVIMGIGINANQKQEHFDEEIQHIATSLAIESGKPIVRAELMQQIFLQLEKLYEEYLQNGFSVIKILWESYAVSIGKEINARTMRETITGVAKGITEDGVLLLEDHEGKVHHIHSADIEIK	failed
MEINADFTKPVVIDTDQLEWRPSPMKGVERRMLDRIGGEVARATSIVRYAPGSRFSAHTHDGGEEFIVLDGVFQDEHGDYPAGTYVRNPPTTSHVPGSAEGCTIFVKLWQFDPADRTQFSKNMEAELGAPVEGISTSLLHEDERETVTHRKLEPGANLTSEAAGGIEVLVLDGDVTVNDEVLGRNAWLRLPEGEALSATAGARGAKIWMKTGHLRFVRTPEV	not failed
MKWIDSHIHVDQYKDEEKSRLLKEVENSKEIKGLIAVSMNYQSCKETLSLAKKYPFIYPAIGFHPEQQIHKEECEQIYQLIEQNAEEIVAIGEVGLPYYLRKEDERIAADPYIAVLKKFIELASKYNLPIVLHAVYEDADIVCDLLEKYKVSRAHFHWFKGSDETMKRMMRNGYYISITPDVLHKEKIRKIVSYYPLEYMMVETDGPWEFQEDVITHPRMIREVLKEISSIKNISIDKVAETIYENTSRFYLK	failed
MRLMDILEILYYKKGKEFGILEKKMKEIFNETGVSLEPVNSELIGRIFLKISVLEEGEEVPSFAIKALTPKENAVDLPLGDWTDLKNVFVEEIDYLDSYGDMKILSEKNWYKIYVPYSSVKKKNRNELVEEFMKYFFESKGWNPGEYTFSVQEIDNLF	not failed
MEYNRNFFIAIGLSFGVLIAWHFFYVAPKQTELQQKQLIAQQLLKQQSAVSSPTANFSDSASTHESALIINHPMSPEIRDAELAKTNRVAIKTNELEGSINLVGAQFDDLLLKKYRLTVDKKSSEIALLNPKGFKETYLAEFGFTSSSLSKDALPQSDTRWHIEGNNTTLTPSTPVTLIYNNGQGQTFRRILSIDDHYMFTIEDSITNESDKPIYLSSYARVARAAPPEHTNATYLLHEGMIGIAGDSLKTEKYKTLAELNPNPDNGQKSMTFSKVIGGWVGITDKYWAVAVIPPQDKEYTSRFIYFDRLQTHYQSDLLGSLLTVAPNETKTITNRLFAGAKQVEIINHYQNDLKIKKFALLIDWGWFDFITKPMFSLIDILYKQTGNFGIAILLVTVLLKTLLFPLANKSYKSMARMKLIQPMLLEIKEKYPEDRTKQQQAIIELYKTQKINPLAGCWPMLVQFPIFFALYKVLYITIEMRHAPFFGWIQDLAAPDPTSLFNLFGLLPYTVPAFLMLGAWPLIMGITMFLQMRMNPAPQDQTQAMIFAWMPIVFTFMLASFPVGLVIYWAWNNILSMIQQGIMMKRQGVKIELFDNLKAMWRKSPKKEAHE	failed
MLVGSQLIEIVIDSLRYENLKEILDEMFRDEVQKLKYFLEDVKEEDEELYNKIVDALKLFKENYEIEDIKIPKKIRVFLVKNNILFLNPQKGSLKPQSYLVWNAIKMLL	failed
MIIRYATPDDIEDMVSIFIDAYNFPGPRESVKSSFEISLEVQPDGCLLAFLKDEPVGMGCIFFYNKQAWIGLMGVKKAYQRRGIGTEVFRRLLEIGRRKVDTIRLDASSQGYGLYKKFKFVDEYRTVRYELMERPIKRVEGVVEVNKIPNWVKEIDKKAFGDDRIRVLEAYMRRGARLLCAENEGFGLVYRGKIGPLVADSPRVAEKILLKAFQLGAREIIIPEVNKDALELIKIFKPSQVTSCMRMRLGSKIEEKVDIYYGILAYAKG	not failed
MTHTTANQVIHYVDQDGNTVFDDNDSQTLDYERSVTIDEVTGEITAYGDWKAVDGDEFGSVTSSDKPGYAIDKPVVSGEKPTITNGKDGKVSDVEVTVTYTALEHHHHHH	not failed
MLTDPFFYLVAIPAVILLGLTKGGFAGIGVVAVPMMTLAVSPVMAASIILPILLVQDVVSVWSFRKTWDKAILVLMLPAAAVGIFLGWALAALVEEAAVELAVGAISVVFALQRLWAEHALRAADSIEAGPARPWLGVLCGATAGFTSQIAHAGGPPFQIYVLPRGLPRDVFIGTSAIFFGVVNWMKVPAYLALGQLTPQALATAGVLLPLAIASTWAGVWLVRRVPAEGFYKVIYVLLVLVGGKLMFDGARGLLT	failed
MAAKICNRKNCKRSVQKMRIRSLLIILTIGLLLVNAICVSALGQTSESIARGDVYFGLMRYRDAIAWYKLDSTKAEAQWKIARAYVCYGDNAVPAEKEYNFRNAVRAANKCIELEETNANGHTWLAAALGNTAMYEGSKTKVRLCTQIKKELNRAIALNPKDDIAYSILGSFYREIGNISWLEKQLAMTFIGKIPDGTYEDSEKAFAKAIALNPTIMRHWYEQGLLYKYWNKNEQAIASFNKAKACPVFVSSDNKRLAAIEVYLKNLQ	failed
MEVKVQSDDLEYVVSTVRSYINSYETDVNPLYIRFYFFESDNPLLDENFDEIRKILVPSGYIPAVIKGPENYIEVTRRPKENYRSIYVNIIMLVLTLLSTVYVGSIYAASFVRPGPYYEFYKLLYGFVFFSLPLMFILGIHETAHYLVARRYRVNASLPFFIPFPYIIGTFGAFVSLRDPIPDRKAMTEIGAAGPIAGFLASIPLMFLAQYFEKVIKPVNNVIPFQLNYPLIYKLFGIFEPVKVPVFPMVFAVWVGIFATAMNLIPAGQLDGGHIVRGLLGSRAYILNYIFLGFLFYLAIVYNYLGWLFLALFVIFLGLVHPPALNDYARIKMRDVFIGIFCLLMFIITFTPLPIKP	failed
VRPGDTEIDKLVALIDAADKVTLFCGSGTAGAHAEVMEFAEKIKSPVGHALRGKEWIQYDNPYDVGMSGLLGYGAAYEATNECDLLILLGTDFPYNAFLPTDVKIAQVDVRPERLGRRSKLDLAVWGDVRETLRCLIPRVKPKENRRFLDKMLKKHADALEGVIKAYTRKVEK	failed
